Three substances from publication doi:10.1101/686782 can be followed below.

Common to all, as to test: cryo-EM structure
The target in experiment [1] is V. mimicus FliP (Vibrio mimicus).
In experiment [2] the target is V. mimicus FliQ (Vibrio mimicus).
Experiment [3] concerns the target V. mimicus FliPQR complex (FliP5Q4R1) (Vibrio mimicus).

V. mimicus FliP (natural protein): the stoichiometry N (in general, the number of molecules, sites or subunits per partner or assembly) in experiment [1] is 5.
In turn, V. mimicus FliQ (natural protein) had a stoichiometry N in experiment [2] of 4.
With V. mimicus FlhB (natural protein), in experiment [3], the stoichiometry N is 1.
